This test concerns the target Dansyl-calmodulin (dansyl-CaM), purified, P0DP23. In words: other fluorescence titration. Particulars: remark: other sources report otherwise.

One may read the stoichiometry N as a count of units in the complex or per binding partner.

B1: Regulator of G Protein Signaling 14 (RGS14), purified recombinant protein, O08773 1-544 (natural protein)
chain: MPGKPKHLGVPNGRMVLAVSDGELTSTSGSQAQGEGRGSSLSIHSLPSGPSSPFSTDEQPVASWAQSFERLLQDPRGLAYFTEFLKKEFSAENVTFWQACERFQQIPASDTKQLAQEAHNIYHEFLSSQALSPVNIDRQAWLSEEVLAQPRPDMFRAQQLQIFNLMKFDSYARFVKSPLYQECLLAEAEGRPLREPGSSHLGSPDTARKKPKLKPGKSLPLGVEELGQLPLAEGRPLRKSFRREMPGGAVNSALRRESQGSLNSSASLDLGFLAFVSSKSESHRKSLGSGEGESESRPGKYCCVYLPDGTASLALARPGLTIRDMLAGICEKRGLSLPDIKVYLVGKEQKALVLDQDCTVLADQEVRLENRITFQLELVGLERVVRISAKPTKRLQEALQPILAKHGLSLDQVVLHRPGEKQLVDLENLVSSVASQTLVLDTLPDAKTREASSIPPCRSQGCLPRTQTKDSHLPPLSSSLSVEDASGSTGKRQTCDIEGLVELLNRVQSSGAHDQRGLLRKEDLVLPEFLQLPSQRPGSQEAPP
modifications: here or on the partner: dansyl label (position not given)
As to B1, the stoichiometry N is 1.

These data come from paper doi:10.1101/247270.
